Data reported in publication PMC7116892 (Science (New York, N.Y.), 2021).

B1: Lc8e, ODA light chain (natural protein, Tetrahymena thermophila, UniProt Q24DI9 1-93, looked up)
chain: MGDHANEQIIDMPENSEMKSMKNDAFSQAKFAVENYKFENKISSHIKKFFDEKYGPNWHCVVGKHFNAYVSYDSKNFIFFYEGQLAILLYRKG
B2: Lc8d, ODA light chain (natural protein, Tetrahymena thermophila, UniProt Q24CE5 1-87, looked up)
chain: MNHEPEVKATDMEEDMIKRVKEIAINAVKEYKQEKQIAHYIKYEFDKIDGYGWNCIVGRNFGSHIIHQTKKYIFFKINELCLLLWKA
B3: Dic2, ODA intermediate chain (natural protein, Tetrahymena thermophila, UniProt I7M008 1-667, looked up)
chain: MPPKQTKVVASRKTVMPISRAGRAQIRRKDSNTQNNMNDQGMEDEEIDQQREGMKNQYEQLTAQELNEDMPSKMLEPKNPQAPKNITVYDYYTRKFKTDELVDQMIVHFSMDGDYIWKESNEYKTQEEIRDTKKALIKEAMRKQESEEPGANHDEEAIKQTLRNKFNYNTRECQTINPSIRERGVSTEPPPSDTICGNITQWEIFDAYYAEIMKDHQIENKKKKEVDQDKKQDQSMYSTSFKRCCKIMERMVVQNDQEDKYHDYRYYWSQGDNLEAGKNEGHLLPIWRFSNEKQRKKNVTSICWNPLYPDLFAVSLGSYDFTKQRMGLICLYSLKNTTHPEYAFNCEAGVMCLDFHPKSAALLAVGLYDGTVLVYDIRNKHKKPIYQSTVRNQKHTDPVWQVKWNPDTSKNYNFYSISSDGRVMNWILMKNKLEPEEVILLRLVGKNEEESTLIGLACGLCFDFNKFEPHIFLVGTEEGKIHKCSRAYSGQYQETYNGHLLAVYKVKWNNFHPRTFISASADWTVRIWDSKYTSQIICFDLSMMVVDAVWAPYSSTVFACATMDKVQVYDLNVDKLNKLAEQKIVKQPKLTNLSFNYKDPILLVGDSHGGVTLVKLSPNLCKSGPEIKQTEDKKAMEEFKNVKIEDYEREKMENLLAVVSKWEREDA
B4: Lc7, roadblock ODA light chain (natural protein, Tetrahymena thermophila, UniProt I7MHB1 1-133, looked up)
chain: MAQDINADDQLKQLSALEGANGYVIFNESGIPLKRHEKSISHEKAVHIAALVSDLWNVSKKVIQRDLKTPENDIEVIRLRTKHSYEYIITQSGDFTMLAIQLCGKAIEEAKKAAAAAAAAAVVQEENKEKEKK
B5: Lc9, Tctex-like ODA light chain (natural protein, Tetrahymena thermophila, UniProt A4VEB3 1-117, looked up)
chain: MGDTDKEYISEEVQKAIDDSVKQVFGIKDDSSQVTITYNKDKVNLWTQQIIDYTIRGLNKLGKHFKYCVTAILQQTNHAGISVQITAYQDTNTDGSLIQCYEINDIYAIVSVFAMAV
B6: Lc8, ODA light chain (natural protein, Tetrahymena thermophila, UniProt W7XJB1 1-111, looked up)
chain: MSDSDSDEGRVVEEPLPPHIIRFNDMAQHLLKKVIRQADVLIKENPQGLEKDIALNLVKFVKSQPEFKIGDGEWQCIIGKNFGCSLTFDANVLAFFDLLPSRKSILLFKSG
B7: Lc8f (unnamed Lc8-like protein, UniProt ID Q22R86), ODA light chain (natural protein, Tetrahymena thermophila, UniProt Q22R86 1-111, looked up)
chain: MASNQQQKEDPKEQQQQYKTFMGARVLWPPECADDILEGAIRETQDALKKFEIAREGQKIAEHLKKYMDDHFDPYWHVFFGKNFGCQAVHNKNRFIYFYIEKTAFLMYQTQ
B8: Lc7b, roadblock ODA light chain (natural protein, Tetrahymena thermophila, UniProt Q22MV2 1-159, looked up)
chain: MIYKTSKEIQKSDQRIIQQRVENSIINNQIYQKSLKRKTSKRKVRHQANKKNFQKEMSEVEDTLNRIKTHKTVLGYLIVNSEGGVVRGAFKDEEESKNIANSIPLLTKKARSVVRDLDPTNDLVFLRIQTKLNEIMVAPDDEFSLIVIQTKGEKRDEND

How the values were obtained:
Assay in all cases: cryo-EM structure
[1] = biological target: T1, Shulin (Q22YU3), recombinant full-length, C-terminal 2xStrep (Tetrahymena thermophila, UniProt Q22YU3 1-1200)
T1 sequence (looked up): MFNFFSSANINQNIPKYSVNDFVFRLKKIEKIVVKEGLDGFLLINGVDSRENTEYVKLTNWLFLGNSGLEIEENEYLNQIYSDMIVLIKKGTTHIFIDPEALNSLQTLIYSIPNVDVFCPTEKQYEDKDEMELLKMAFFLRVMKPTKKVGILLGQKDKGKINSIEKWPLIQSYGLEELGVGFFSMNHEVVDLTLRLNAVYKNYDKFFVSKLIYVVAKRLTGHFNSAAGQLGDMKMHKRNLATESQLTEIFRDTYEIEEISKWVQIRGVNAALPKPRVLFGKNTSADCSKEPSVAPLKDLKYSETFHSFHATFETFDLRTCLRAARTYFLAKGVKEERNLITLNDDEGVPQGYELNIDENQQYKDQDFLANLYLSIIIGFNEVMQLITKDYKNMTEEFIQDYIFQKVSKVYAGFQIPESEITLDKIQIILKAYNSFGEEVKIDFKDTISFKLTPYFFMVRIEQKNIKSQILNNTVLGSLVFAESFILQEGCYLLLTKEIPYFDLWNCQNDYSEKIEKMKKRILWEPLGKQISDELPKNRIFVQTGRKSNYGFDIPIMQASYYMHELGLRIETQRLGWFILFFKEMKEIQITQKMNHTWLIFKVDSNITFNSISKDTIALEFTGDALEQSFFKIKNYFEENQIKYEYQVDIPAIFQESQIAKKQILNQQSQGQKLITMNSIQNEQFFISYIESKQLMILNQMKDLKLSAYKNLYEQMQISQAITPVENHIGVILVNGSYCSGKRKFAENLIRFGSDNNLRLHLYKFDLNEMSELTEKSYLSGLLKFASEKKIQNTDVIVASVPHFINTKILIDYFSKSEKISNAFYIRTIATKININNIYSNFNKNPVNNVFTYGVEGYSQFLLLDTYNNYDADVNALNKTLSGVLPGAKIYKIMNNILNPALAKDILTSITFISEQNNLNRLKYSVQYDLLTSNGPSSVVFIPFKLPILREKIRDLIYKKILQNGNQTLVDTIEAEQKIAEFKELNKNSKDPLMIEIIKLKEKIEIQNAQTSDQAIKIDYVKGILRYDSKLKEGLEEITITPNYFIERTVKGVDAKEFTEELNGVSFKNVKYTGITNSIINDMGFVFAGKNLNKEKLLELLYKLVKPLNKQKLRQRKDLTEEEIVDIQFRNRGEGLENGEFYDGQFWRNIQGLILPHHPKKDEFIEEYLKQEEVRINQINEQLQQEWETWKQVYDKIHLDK

[2] = biological target: T2, Dic3, ODA intermediate chain (Tetrahymena thermophila, UniProt Q23FU1 1-670)
T2 sequence (looked up): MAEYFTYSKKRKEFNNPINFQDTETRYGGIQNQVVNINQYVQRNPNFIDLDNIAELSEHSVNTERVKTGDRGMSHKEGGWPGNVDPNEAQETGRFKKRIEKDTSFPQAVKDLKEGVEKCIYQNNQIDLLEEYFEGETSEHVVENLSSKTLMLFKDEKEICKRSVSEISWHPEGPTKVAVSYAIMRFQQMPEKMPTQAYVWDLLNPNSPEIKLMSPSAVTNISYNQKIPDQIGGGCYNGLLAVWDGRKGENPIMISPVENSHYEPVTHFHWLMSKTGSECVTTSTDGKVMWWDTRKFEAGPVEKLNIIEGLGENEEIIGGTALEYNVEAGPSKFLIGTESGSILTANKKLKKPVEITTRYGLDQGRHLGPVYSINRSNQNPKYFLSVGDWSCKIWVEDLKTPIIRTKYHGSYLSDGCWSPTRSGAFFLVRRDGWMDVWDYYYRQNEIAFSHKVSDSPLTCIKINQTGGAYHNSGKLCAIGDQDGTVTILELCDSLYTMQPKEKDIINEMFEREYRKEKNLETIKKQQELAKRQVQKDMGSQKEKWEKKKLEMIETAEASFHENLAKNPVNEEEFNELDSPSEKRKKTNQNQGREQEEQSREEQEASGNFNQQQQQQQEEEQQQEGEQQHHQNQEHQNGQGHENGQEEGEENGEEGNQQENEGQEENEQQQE

[3] = biological target: B3
[4] = biological target: B8

| Binder | binding result [1] | binding result [2] | binding result [3] | binding result [4] |
| --- | --- | --- | --- | --- |
| B1 | binds | binds | binds |  |
| B2 | binds | binds | binds |  |
| B3 | binds |  |  |  |
| B4 |  | binds | binds | binds |
| B5 |  | binds | binds |  |
| B6 |  | binds | binds |  |
| B7 |  | binds | binds |  |
| B8 |  | binds | binds |  |
